{"source": "paper PMC3666556", "test_in_all_cases": "cross-linking", "key": {"G129C-apoA-I (human) [1]": {"target": "G129C-apoA-I (human)"}, "G129C-apoA-I (human) [2]": {"target": "G129C-apoA-I (human)", "remark": "listed apart in the source"}, "K140C-apoA-I (human) [3]": {"target": "K140C-apoA-I (human)"}, "K140C-apoA-I (human) [4]": {"target": "K140C-apoA-I (human)", "remark": "listed apart in the source"}, "K118C-apoA-I (human) [5]": {"target": "K118C-apoA-I (human) (UniProt P02647)"}, "K118C-apoA-I (human) [6]": {"target": "K118C-apoA-I (human) (UniProt P02647)", "remark": "listed apart in the source"}}, "note": "Like-named read-outs stand apart in the source and are kept apart here."}
{"substance": "G129C-apoA-I (natural protein)", "values": [{"measurement": "percent homodimer", "setting": "G129C-apoA-I (human) [1]", "result": 22, "unit": "%"}, {"measurement": "percent homodimer", "setting": "G129C-apoA-I (human) [2]", "result": 38, "unit": "%"}]}
{"substance": "K140C-apoA-I (natural protein)", "values": [{"measurement": "percent homodimer", "setting": "K140C-apoA-I (human) [3]", "result": 41, "unit": "%"}, {"measurement": "percent homodimer", "setting": "K140C-apoA-I (human) [4]", "result": 65, "unit": "%"}]}
{"substance": "K118C-apoA-I (from UniProt P02647 19-267) (natural protein)", "values": [{"measurement": "percent homodimer", "setting": "K118C-apoA-I (human) [5]", "result": 4, "unit": "%"}, {"measurement": "percent homodimer", "setting": "K118C-apoA-I (human) [6]", "result": 17, "unit": "%"}]}
